Target: T1, recombinant TRIB2 protein (TP301210, OriGene), biotinylated (human, UniProt Q92519 1-343, biotinylated)
T1 chain: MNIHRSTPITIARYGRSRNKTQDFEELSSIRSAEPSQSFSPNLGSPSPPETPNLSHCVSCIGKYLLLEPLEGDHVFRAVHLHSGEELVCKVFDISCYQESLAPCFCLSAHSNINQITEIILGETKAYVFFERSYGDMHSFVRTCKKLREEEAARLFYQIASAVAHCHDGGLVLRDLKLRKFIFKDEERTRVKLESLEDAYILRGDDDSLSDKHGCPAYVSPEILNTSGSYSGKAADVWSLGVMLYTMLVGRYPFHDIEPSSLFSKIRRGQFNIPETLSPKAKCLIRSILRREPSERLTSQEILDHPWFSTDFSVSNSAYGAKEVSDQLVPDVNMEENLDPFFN
Test: BLI

koff: 0.0175 s⁻¹
B1: PKM2 (ab89364, Abcam) (natural protein)
chain: not shown

Reference: article PMC9256704 (2022)
